Values quoted from earlier work as cited in article PMC10570509.

Target: OSMRβ (Homo sapiens) (UniProt Q99650)
Chain of UniProt Q99650 (Q99650 28-740): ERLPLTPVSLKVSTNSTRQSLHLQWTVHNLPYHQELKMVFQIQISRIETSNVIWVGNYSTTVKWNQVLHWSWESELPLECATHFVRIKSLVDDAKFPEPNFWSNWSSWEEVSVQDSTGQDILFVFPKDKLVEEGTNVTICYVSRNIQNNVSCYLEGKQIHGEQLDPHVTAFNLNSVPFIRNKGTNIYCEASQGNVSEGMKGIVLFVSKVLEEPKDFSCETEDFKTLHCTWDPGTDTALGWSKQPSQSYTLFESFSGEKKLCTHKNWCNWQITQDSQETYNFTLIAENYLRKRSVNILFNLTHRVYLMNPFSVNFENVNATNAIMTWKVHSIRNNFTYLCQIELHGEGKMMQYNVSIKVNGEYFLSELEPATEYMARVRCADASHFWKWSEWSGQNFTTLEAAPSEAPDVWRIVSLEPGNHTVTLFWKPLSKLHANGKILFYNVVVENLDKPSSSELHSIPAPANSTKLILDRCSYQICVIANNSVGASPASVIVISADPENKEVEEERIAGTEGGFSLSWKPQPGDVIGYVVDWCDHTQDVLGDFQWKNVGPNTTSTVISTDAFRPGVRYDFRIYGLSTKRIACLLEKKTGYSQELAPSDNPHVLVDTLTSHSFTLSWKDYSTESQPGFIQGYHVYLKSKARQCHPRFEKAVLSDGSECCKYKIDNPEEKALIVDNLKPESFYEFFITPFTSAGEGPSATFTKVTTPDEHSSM

Substance: Oncostatin M (from UniProt P13725)
- Kd: 0.15 nM
